According to US20230265192A1 (GIGAGEN, published 2023):

B1: antibody A7 (L7H7) (antibody, V domains shown)
VH: QVQLVESGGGVVQPGRSLRLSCAASGFTLSSFGMHWVRQAPGKGLEWVAVIWYDGSNKYYADSVKGRFIISRDNSKTALYLQMNSLRAEDTAVYYCARAHYFGAFDIWGQGTMVTVSS
VL: not shown
notes: also called aCTLA-4.3; CTLA4.A7
B2: antibody A2 (L2H2) (antibody, V domains shown)
VH: QVQLVESGGGVVQPGRSLRLSCAASGFTFSNYGMNWVRQAPGKGLEWVAVIWYDGRNKHYADSVKGRFTISRDNSKNTLYLQMNSLRAEDTAVYYCARGGDWGPYFDYWGQGTLVTVSS
VL: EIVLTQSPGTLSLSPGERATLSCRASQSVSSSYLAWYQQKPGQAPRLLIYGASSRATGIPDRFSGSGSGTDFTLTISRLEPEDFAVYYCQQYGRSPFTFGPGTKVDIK
notes: also called aCTLA-4.4; CTLA4.A2
B3: antibody A5 (L5H5) (antibody, V domains shown)
VH: QVQLVESGGGVVQPGRSLRLSCAASGFTFSSYGMHWVRQAPGKGLEWVAVIWYDGNNKYYADSVKGRFTISRDNSKNTLYLQMYSLRAEDTAVYYCARGGILAAGIFDYWGQGTLVTVSS
VL: EIVLTQSPGTLSLSPGDRATLSCRASQSGSSSYLAWYQQKPGQAPRLLIYGASSRATGIPDRFSGSGSGTDFTLTISRLEPEDFAVYYCQQYGTSPFTSGPGTKVDIK
notes: also called aCTLA-4.28; CTLA4.A5

Tests used:
[1] = target: T1, His-tagged human CTLA-4 (CT4-H5229; Acro Biosystems) (human, UniProt P16410 36-161); experiment: SPR (Carterra), soluble human CTLA-4
T1 construct: bought soluble protein; also called soluble human CTLA-4; recombinant human CTLA-4; not shown: His tag

[2] = target: T2, His-tagged cynomolgus CTLA-4 (CT4-C5227; Acro Biosystems) (cynomolgus, UniProt G7PL88 36-161); experiment: BLI (Octet), single antigen concentration
T2 construct: also called soluble cynomolgus CTLA-4; cyno CTLA-4
Protocol: Table 23. In vitro characterization of scFvs reformatted as full-length antibodies. kon, koff, and KD of the indicated CTLA-4 mAbs for soluble human CTLA-4 was determined by SPR (Carterra). Geometric MFI of the indicated CTLA-4 mAbs bound to CTLA-4⁺ or CD27⁺ CHO cells as detected by a secondary human IgG antibody and flow cytometry. Affinity (KD) of the indicated CTLA-4 mAbs for soluble cynomolgus CTLA-4 was determined by a single antigen concentration BLI measurement (Octet). […] Due to constraints on sample size in each Promega bioassay kit, this set of aCTLA-4 mAbs was analyzed using multiple plates (plate letters correspond to Plate A-D in FIG. 20D).
Antibodies were loaded at 5 μg/mL onto Protein A biosensors that were dipped into 80 nM antigen, and kinetic constants were calculated using a monovalent model.

[3] = target: T2, His-tagged cynomolgus CTLA-4 …; experiment: BLI (Octet)
Summary of the method: (§1)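 Antibodies captured on anti-human IgG Fc (AHC) biosensors (Octet Red96); antigen analyte from 300 nM in 6 serial 1:3 dilutions. Kinetics from global fitting to a 1:1 binding model.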

mouse CTLA-4 = mouse CTLA-4 (mouse, UniProt P09793 36-161, limits assumed); experiment: BLI (Octet)
Summary of the method: as §1

[4] = target: T1, His-tagged human CTLA-4 (CT4-H5229; …); experiment: SPR (Carterra)
Summary of the method: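 mAb supernatants captured, at two densities, on an anti-human IgG Fc lawn. His-tagged human CTLA-4 injected at 1.95, 7.8, 31.25, 125 and 500 nM in HBS-EPC pH 7.4 with 1.0 mg/mL BSA, as a non-regenerative series with 5-min association and 15-min dissociation. Double-referenced data fitted for ka, kd and KD.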

[5] = target: T3, recombinant human CTLA-4-Fc (7268-CT, R&D Systems) (human, UniProt P16410 36-162); experiment: blocking ELISA, plate rhCTLA4-Fc, competitor rhCD86-His
T3 construct: bought; also called rhCTLA-4-Fc; rhCTLA4-Fc; Fc part of the bought chimera not given
Protocol: Plates were coated with rhCTLA4-Fc and then blocked with 1×PBST with 5% w/v nonfat dry milk. After blocking a dilution series of the indicated antibody was added to the plate.

[6] = target: T4, human CTLA-4 expressed on the cell surface (human, UniProt P16410 36-223); experiment: cell-based or functional assay
[7] = target: T4, human CTLA-4 expressed on the cell …; experiment: cell-based or functional assay; remark: listed apart in the source
[8] = target: T3, recombinant human CTLA-4-Fc (7268-CT, …); experiment: blocking ELISA, coated CTLA-4-Fc, competitor His-CD80
Protocol: Table 24. […] Summary of blocking ELISA data from FIG. 13B. […] The data were then analyzed and fit by nonlinear regression.
ELISA plates (Nunc, MaxiSorp ELISA plates, flat bottom, uncoated, BioLegend, San Diego, Calif., USA) were coated with recombinant human CTLA-4-Fc (7268-CT, R&D Systems, Minneapolis, Minn., USA) at 1 μg/mL overnight at 4° C. Plates were then blocked with 5% milk in phosphate buffered saline with tween 20 (PBST) for 1 hour at room temperature. A titration series of the indicated mAbs was then added to the plates and then the plates were incubated for 1 hour at room temperature to allow mAb binding. Excess, unbound mAb was removed by washing with PBST. […] After incubation for 1 hour at room temperature, the plates were washed to remove unbound ligand. Bound ligand was detected with a horseradish peroxidase (HRP)-conjugated anti-His antibody (652504, BioLegend, San Diego, Calif., USA). After incubation for 1 hour at room temperature and washing, the plates were developed with 3,3′,5,5′-Tetramethylbenzidine (TMB) substrate (34028, Pierce, Waltham, Mass., USA). […] Absorbance at 450 nm was read using a Spectramax i3x plate reader (Molecular Devices. San Jose, Calif., USA). Half maximal inhibitory concentration (IC50) values were calculated by plotting absorbance versus the log of concentration using Prism (GraphPad, San Diego, Calif., USA).

T3 sequence (P16410 36-162): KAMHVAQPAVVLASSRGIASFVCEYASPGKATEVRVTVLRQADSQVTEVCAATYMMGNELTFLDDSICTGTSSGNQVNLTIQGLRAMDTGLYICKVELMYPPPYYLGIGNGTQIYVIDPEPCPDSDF
T2 sequence (G7PL88 entry or part of it limits assumed, form in doubt): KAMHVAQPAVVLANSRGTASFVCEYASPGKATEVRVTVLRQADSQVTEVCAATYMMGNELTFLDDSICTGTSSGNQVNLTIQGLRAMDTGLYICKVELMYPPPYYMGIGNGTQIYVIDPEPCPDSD
T1 sequence (P16410 36-161 limits assumed): as the sequence (G7PL88 entry or part of it limits assumed, form in doubt) above, with N14S, T18I, M106L counted along it
T4 sequence (P16410 36-223 limits assumed): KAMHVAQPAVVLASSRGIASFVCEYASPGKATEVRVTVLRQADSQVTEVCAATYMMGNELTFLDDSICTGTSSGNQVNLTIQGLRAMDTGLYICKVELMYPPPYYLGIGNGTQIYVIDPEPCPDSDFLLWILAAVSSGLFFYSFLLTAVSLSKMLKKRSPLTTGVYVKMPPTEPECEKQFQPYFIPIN
Chain of mouse CTLA-4 (P09793 36-161 limits assumed): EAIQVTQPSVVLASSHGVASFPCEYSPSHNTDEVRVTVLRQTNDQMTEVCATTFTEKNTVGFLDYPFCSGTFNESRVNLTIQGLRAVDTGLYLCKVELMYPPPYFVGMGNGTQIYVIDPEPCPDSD

Binder	Kd [1] [nM]	koff [1] [s⁻¹]	kon [1] [M⁻¹ s⁻¹]	Kd [2] [nM]	Kd [3] [nM]	binding result (mouse CTLA-4)	Kd [4] [nM]	CD86 % inhibition [5] [%]	EC50 [5] [µg/mL]	Cell-based blocking activity EC50 [6] [µg/mL]	Cell-based blocking activity max signal (RLU) [6] [RLU]	Promega assay % inhibition [7] [%]	Promega assay antagonist (EC50, ug/mL) [7] [µg/mL]	Kd (mouse CTLA-4) [nM]	IC50 [8] [µg/mL]
B1	5.7	0.00036	64000	0.8	0.75	no binding (tested: 300 nM)	5.7	78.8	1.98	0.17	63	11.5	0.17		
B2	5.1	0.00052	100000	3.1	3.1	no binding (tested: 300 nM)	5.1	91.5	0.145	0.12	413	75.4	0.12		
B3	4.6	0.00042	90000	2.2	2.2		4.6	90.6	0.122	0.18	548	100	0.18	39.4	0.12
